Measurements taken from the supplement of paper PMC9112550, “Optimization of the antimicrobial peptide Bac7 by deep mutational scanning” (BMC Biology, 2022).

System: Escherichia coli TOP10
Assay: shrunken log2 fold change of peptide-encoding DNA abundance (4.5 h post-induction vs induction); higher = less antimicrobial activity (less host growth inhibition)
Details: time post-induction: 4.5 h; library: site-saturation at positions 5, 18, 19, 20
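Further: peptides expressed intracellularly from a pBAD plasmid library in pooled LB shake-flask culture, induced with 0.3% L-arabinose, DNA abundance read by NGS, three biological replicates, DESeq2 with apeglm shrinkage.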

Sequence	shrunken log2 fold change
RRIRGRPPRLPRPRPRPRFVPRP	0.467
RRIRSRPPRLPRPRPRPKMAPRP	-0.13
RRIRSRPPRLPRPRPRPAEEPRP	0.164
RRIRNRPPRLPRPRPRPKPQPRP	0.41
RRIRYRPPRLPRPRPRPFNDPRP	-0.102
RRIRMRPPRLPRPRPRPMVRPRP	0.0591
RRIRLRPPRLPRPRPRPIAHPRP	-0.058
RRIRWRPPRLPRPRPRPDRKPRP	-0.0752
RRIRVRPPRLPRPRPRPHWGPRP	-0.0382
RRIRGRPPRLPRPRPRPSQAPRP	0.612
RRIRMRPPRLPRPRPRPCKYPRP	-0.0297
RRIRHRPPRLPRPRPRPDGWPRP	0.191
RRIRGRPPRLPRPRPRPVYHPRP	-0.174
RRIRFRPPRLPRPRPRPSSGPRP	-0.0411
RRIRLRPPRLPRPRPRPTHNPRP	-0.0209
RRIRYRPPRLPRPRPRPEHAPRP	0.0635
RRIRWRPPRLPRPRPRPYQGPRP	-0.0161
RRIRPRPPRLPRPRPRPMVIPRP	-0.0869
RRIRCRPPRLPRPRPRPVQLPRP	0.0365
RRIRQRPPRLPRPRPRPPHPPRP	0.548
RRIRWRPPRLPRPRPRPRPDPRP	0.518
RRIRMRPPRLPRPRPRPTFDPRP	0.558
RRIRVRPPRLPRPRPRPINIPRP	-0.347
RRIRPRPPRLPRPRPRPKDWPRP	0.342
RRIRTRPPRLPRPRPRPFVCPRP	-0.374

Sequence	shrunken log2 fold change
RRIRTRPPRLPRPRPRPKSPPRP	-0.0758
RRIRGRPPRLPRPRPRPFIWPRP	0.351
RRIRQRPPRLPRPRPRPCWFPRP	-0.257
RRIRSRPPRLPRPRPRPWFYPRP	-0.172
RRIRLRPPRLPRPRPRPIKQPRP	-0.00202
RRIRGRPPRLPRPRPRPNRMPRP	-0.00965
RRIRRRPPRLPRPRPRPWIWPRP	-0.282
RRIRFRPPRLPRPRPRPGAKPRP	0.118
RRIRPRPPRLPRPRPRPPTVPRP	0.279
RRIRFRPPRLPRPRPRPQYIPRP	-0.0295
RRIRIRPPRLPRPRPRPQAIPRP	0.0305
RRIRFRPPRLPRPRPRPELCPRP	0.193
RRIRARPPRLPRPRPRPRPWPRP	0.499
RRIRCRPPRLPRPRPRPEGYPRP	0.461
RRIRNRPPRLPRPRPRPFTIPRP	-0.28
RRIRIRPPRLPRPRPRPREEPRP	0.0171
RRIRSRPPRLPRPRPRPAKIPRP	-0.0773
RRIRQRPPRLPRPRPRPMIQPRP	0.0718
RRIRVRPPRLPRPRPRPNMWPRP	-0.327
RRIRHRPPRLPRPRPRPQWMPRP	0.0263
RRIRFRPPRLPRPRPRPDDVPRP	-0.0133
RRIRCRPPRLPRPRPRPVRDPRP	0.238
RRIRDRPPRLPRPRPRPKIRPRP	-0.0266
RRIRPRPPRLPRPRPRPSHRPRP	0.0628
RRIRDRPPRLPRPRPRPWMCPRP	-0.0722

Sequence	shrunken log2 fold change
RRIRQRPPRLPRPRPRPVFNPRP	-0.291
RRIRLRPPRLPRPRPRPQGIPRP	-0.0354
RRIRPRPPRLPRPRPRPRDDPRP	0.23
RRIRWRPPRLPRPRPRPIIQPRP	-0.151
RRIRPRPPRLPRPRPRPMNEPRP	-0.0529
RRIRIRPPRLPRPRPRPNGVPRP	-0.37
RRIRSRPPRLPRPRPRPSSYPRP	-0.344
RRIRHRPPRLPRPRPRPMAWPRP	0.0581
RRIRFRPPRLPRPRPRPRIRPRP	-0.075
RRIRPRPPRLPRPRPRPPERPRP	0.322
RRIRGRPPRLPRPRPRPSCSPRP	0.295
RRIRFRPPRLPRPRPRPIIFPRP	-0.621
RRIRYRPPRLPRPRPRPAFYPRP	-0.513
RRIRNRPPRLPRPRPRPWLWPRP	0.165
RRIRRRPPRLPRPRPRPDQWPRP	0.224
RRIRPRPPRLPRPRPRPTEHPRP	-0.1
RRIRNRPPRLPRPRPRPKIDPRP	-0.626
RRIRLRPPRLPRPRPRPGGIPRP	-0.0154
RRIRCRPPRLPRPRPRPESCPRP	-0.0297
RRIRKRPPRLPRPRPRPHEYPRP	-0.091
RRIRRRPPRLPRPRPRPNHWPRP	0.0169
RRIRERPPRLPRPRPRPVMFPRP	0.934
RRIRFRPPRLPRPRPRPELFPRP	0.15
RRIRVRPPRLPRPRPRPMTPPRP	0.452
RRIRQRPPRLPRPRPRPPVDPRP	-0.19

Sequence	shrunken log2 fold change
RRIRSRPPRLPRPRPRPWPCPRP	0.134
RRIRPRPPRLPRPRPRPMTNPRP	-0.184
RRIRQRPPRLPRPRPRPMSIPRP	-0.00929
RRIRIRPPRLPRPRPRPCSIPRP	-0.012
RRIRGRPPRLPRPRPRPYFNPRP	-0.439
RRIRERPPRLPRPRPRPMAPPRP	1.59
RRIRPRPPRLPRPRPRPDDGPRP	-0.21
RRIRVRPPRLPRPRPRPYSEPRP	-0.217
RRIRGRPPRLPRPRPRPGEYPRP	0.3
RRIRMRPPRLPRPRPRPAHIPRP	-0.161
RRIRLRPPRLPRPRPRPPWGPRP	0.203
RRIRARPPRLPRPRPRPYCIPRP	-0.151
RRIRTRPPRLPRPRPRPTYQPRP	-0.206
RRIRPRPPRLPRPRPRPAENPRP	-0.197
RRIRNRPPRLPRPRPRPKHCPRP	-0.111
RRIRIRPPRLPRPRPRPQLAPRP	-0.0191
RRIRNRPPRLPRPRPRPHMKPRP	-0.243
RRIRPRPPRLPRPRPRPVTVPRP	-0.163
RRIRVRPPRLPRPRPRPDGHPRP	-0.00145
RRIRARPPRLPRPRPRPQVRPRP	-0.0207
RRIRRRPPRLPRPRPRPTFNPRP	0.077
RRIRRRPPRLPRPRPRPCQPPRP	-0.0346
RRIRGRPPRLPRPRPRPMQYPRP	-0.21
RRIRYRPPRLPRPRPRPQTAPRP	-0.0183
RRIRERPPRLPRPRPRPIISPRP	-0.209

Sequence	shrunken log2 fold change
RRIRNRPPRLPRPRPRPKIPPRP	-0.255
RRIRDRPPRLPRPRPRPSAAPRP	1.02
RRIRLRPPRLPRPRPRPMSAPRP	0.344
RRIRLRPPRLPRPRPRPFFDPRP	-0.0987
RRIRSRPPRLPRPRPRPWSFPRP	0.0324
RRIRVRPPRLPRPRPRPNMDPRP	-0.506
RRIRPRPPRLPRPRPRPCEQPRP	0.102
RRIRCRPPRLPRPRPRPYSDPRP	-0.0426
RRIRPRPPRLPRPRPRPGIIPRP	-0.0894
RRIRFRPPRLPRPRPRPCWNPRP	0.151
RRIRCRPPRLPRPRPRPHNNPRP	-0.991
RRIRERPPRLPRPRPRPWMMPRP	-0.139
RRIRFRPPRLPRPRPRPWISPRP	-0.456
RRIRPRPPRLPRPRPRPENSPRP	-0.0155
RRIRRRPPRLPRPRPRPSQSPRP	0.121
RRIRQRPPRLPRPRPRPSQTPRP	-0.083
RRIRPRPPRLPRPRPRPPPLPRP	0.699
RRIRRRPPRLPRPRPRPNRFPRP	0.156
RRIRDRPPRLPRPRPRPRIFPRP	-0.0459
RRIRPRPPRLPRPRPRPSEDPRP	0.485
RRIRQRPPRLPRPRPRPQEHPRP	-0.942
RRIRSRPPRLPRPRPRPEMTPRP	-0.0333
RRIRCRPPRLPRPRPRPGVTPRP	-0.175
RRIRPRPPRLPRPRPRPGYDPRP	-0.0887
RRIRYRPPRLPRPRPRPLVVPRP	-0.72

Sequence	shrunken log2 fold change
RRIRMRPPRLPRPRPRPKPDPRP	1.13
RRIRARPPRLPRPRPRPYSIPRP	-0.374
RRIRKRPPRLPRPRPRPFHSPRP	0.00367
RRIRRRPPRLPRPRPRPNHRPRP	-0.0368
RRIRDRPPRLPRPRPRPCKDPRP	-0.144
RRIRERPPRLPRPRPRPCFFPRP	-0.331
RRIRWRPPRLPRPRPRPWVPPRP	0.00582
RRIRKRPPRLPRPRPRPWMTPRP	-0.13
RRIRERPPRLPRPRPRPSCWPRP	0.101
RRIRCRPPRLPRPRPRPKIFPRP	-0.0936
RRIRCRPPRLPRPRPRPVLCPRP	-0.112
RRIRVRPPRLPRPRPRPAHHPRP	-0.011
RRIRIRPPRLPRPRPRPLERPRP	0.0105
RRIRPRPPRLPRPRPRPVDIPRP	-0.288
RRIRIRPPRLPRPRPRPHPTPRP	-0.216
RRIRTRPPRLPRPRPRPKTSPRP	-0.0907
RRIRQRPPRLPRPRPRPSDGPRP	-0.0586
RRIRHRPPRLPRPRPRPIREPRP	-0.00145
RRIRMRPPRLPRPRPRPAIQPRP	-0.00069
RRIRARPPRLPRPRPRPCKWPRP	0.146
RRIRFRPPRLPRPRPRPGKTPRP	-0.142
RRIRKRPPRLPRPRPRPMGDPRP	0.153
RRIRIRPPRLPRPRPRPWCSPRP	-0.412
RRIRCRPPRLPRPRPRPNRKPRP	-0.127
RRIRVRPPRLPRPRPRPERYPRP	0.133
